One molecule from patent EP4596582A1 (Sichuan Kelun-Biotech Biopharmaceutical Co., Ltd., dated 2025) can be followed below.

In assay [1] the target is T1, human B7-H3-2Ig on CHO-S cells (CHO-S-human B7-H3-2Ig) (human, UniProt Q5ZPR3 29-316).
T1 construct: also called CHO-S-B7-H3-2Ig
T1 sequence: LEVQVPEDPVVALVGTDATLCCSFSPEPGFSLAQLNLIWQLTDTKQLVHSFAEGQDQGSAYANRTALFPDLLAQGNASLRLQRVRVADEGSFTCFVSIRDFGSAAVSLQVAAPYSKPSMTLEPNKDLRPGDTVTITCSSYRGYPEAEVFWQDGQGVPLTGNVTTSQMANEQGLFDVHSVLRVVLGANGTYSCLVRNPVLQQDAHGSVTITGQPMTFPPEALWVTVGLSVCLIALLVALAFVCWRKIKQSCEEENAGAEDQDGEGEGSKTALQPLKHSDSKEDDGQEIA
As to the kind of experiment: flow cytometry on CHO-S-human B7-H3-2Ig cells.

Assay [2] deals with T2, rat B7-H3-2Ig-His protein (rat, UniProt Q7TPB4 29-248).
T2 construct: extracellular domain; also called rat B7-H3-his
T2 sequence: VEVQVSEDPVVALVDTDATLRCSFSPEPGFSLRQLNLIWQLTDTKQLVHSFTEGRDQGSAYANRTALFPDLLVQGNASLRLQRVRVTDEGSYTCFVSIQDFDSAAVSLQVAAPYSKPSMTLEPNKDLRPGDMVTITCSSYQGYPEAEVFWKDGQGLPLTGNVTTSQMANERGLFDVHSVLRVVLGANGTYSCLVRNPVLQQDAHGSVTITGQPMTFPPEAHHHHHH
Put plainly: BLI (ForteBio), antibody captured on Protein A sensor, antigen in solution.

In assay [3] the target is T3, human B7-H3 on human tumor cells (MCF-7, HT29, NCI-N87, HCC1806, HCC827) (human, UniProt Q5ZPR3 29-534).
T3 construct: whole, on cells
T3 sequence (looked up): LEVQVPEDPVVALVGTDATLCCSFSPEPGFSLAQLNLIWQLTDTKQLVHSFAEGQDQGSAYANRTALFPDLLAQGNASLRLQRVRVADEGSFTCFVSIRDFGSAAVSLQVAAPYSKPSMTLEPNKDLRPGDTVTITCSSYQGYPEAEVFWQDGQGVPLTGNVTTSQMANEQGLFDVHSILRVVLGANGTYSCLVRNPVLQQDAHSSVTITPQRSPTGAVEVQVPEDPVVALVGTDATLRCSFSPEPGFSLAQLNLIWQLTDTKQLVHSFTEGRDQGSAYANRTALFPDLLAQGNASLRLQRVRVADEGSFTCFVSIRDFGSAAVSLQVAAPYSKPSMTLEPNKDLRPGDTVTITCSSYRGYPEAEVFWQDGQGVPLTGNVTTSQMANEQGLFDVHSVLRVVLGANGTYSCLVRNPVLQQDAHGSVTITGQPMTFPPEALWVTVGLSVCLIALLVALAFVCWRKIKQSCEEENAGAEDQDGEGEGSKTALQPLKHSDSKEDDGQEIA
As to the kind of experiment: flow cytometry on HCC827 cells.

In assay [4] the target is T4, human B7-H3-4Ig on CHO-S cells (CHO-S-human B7-H3-4Ig) (human, UniProt Q5ZPR3 29-534).
T4 sequence (looked up): T3 sequence (looked up)
Put plainly: cell-based or functional assay.

In assay [5] the target is T5, human B7-H3-4Ig-His protein (human, UniProt Q5ZPR3 29-466).
T5 construct: extracellular domain; Made in HEK293-EBNA cells
T5 sequence: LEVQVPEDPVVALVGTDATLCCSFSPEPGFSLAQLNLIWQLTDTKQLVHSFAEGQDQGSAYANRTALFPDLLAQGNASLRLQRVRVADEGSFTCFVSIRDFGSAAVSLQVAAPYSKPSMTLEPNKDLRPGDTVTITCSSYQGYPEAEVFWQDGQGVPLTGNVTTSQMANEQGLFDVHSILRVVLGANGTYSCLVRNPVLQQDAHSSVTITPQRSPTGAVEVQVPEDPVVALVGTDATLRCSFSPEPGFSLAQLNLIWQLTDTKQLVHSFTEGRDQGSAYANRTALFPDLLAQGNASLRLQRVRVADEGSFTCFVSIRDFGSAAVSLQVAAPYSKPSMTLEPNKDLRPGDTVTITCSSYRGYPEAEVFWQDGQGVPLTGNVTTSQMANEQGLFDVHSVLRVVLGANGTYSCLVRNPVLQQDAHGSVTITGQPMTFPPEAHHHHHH
Put plainly: ELISA, antigen coated at 1 ug/ml (specificity panel).

The target of assay [6] is T4, human B7-H3-4Ig on CHO-S cells …. As to the kind of experiment: flow cytometry on CHO-S-human B7-H3-4Ig cells.
Assay [7] addresses T3, human B7-H3 on human tumor cells …. Put plainly: cell-based or functional assay.
The target is the same in assay [8]. Put plainly: flow cytometry on NCI-N87 cells.
For assay [9] the target is unchanged. Put plainly: flow cytometry on HT29 cells.
Assay [10] has as its target T6, human B7-H1-mFc (human, UniProt Q9NZQ7 19-238).
T6 construct: Self-constructed; not shown: mFc
Put plainly: ELISA, antigen coated at 1 ug/ml, 2#8890-biotin detected with streptavidin-peroxidase.

The target of assay [11] is T7, human B7-H4-hFc (human, UniProt Q7Z7D3 25-259).
T7 construct: Bought protein; not shown: hFc
T7 sequence (looked up): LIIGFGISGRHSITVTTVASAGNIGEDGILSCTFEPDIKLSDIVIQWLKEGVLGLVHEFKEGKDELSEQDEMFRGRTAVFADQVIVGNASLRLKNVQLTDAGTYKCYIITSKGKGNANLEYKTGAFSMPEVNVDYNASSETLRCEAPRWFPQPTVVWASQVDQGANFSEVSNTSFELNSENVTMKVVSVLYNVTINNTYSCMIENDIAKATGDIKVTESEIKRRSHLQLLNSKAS
The description is as above.

T6 sequence (Q9NZQ7 19-238): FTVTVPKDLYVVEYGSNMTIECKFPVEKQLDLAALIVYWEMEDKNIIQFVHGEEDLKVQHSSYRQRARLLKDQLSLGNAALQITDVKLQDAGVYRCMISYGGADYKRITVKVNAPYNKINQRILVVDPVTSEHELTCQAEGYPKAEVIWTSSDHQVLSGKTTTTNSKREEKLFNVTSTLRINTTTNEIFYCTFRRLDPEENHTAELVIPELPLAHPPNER

B1: anti-human-B7-H3 human antibody 2#8890 (antibody, human IgG1, kappa, V domains shown)
VH: QVQLQESGPGLVQPSGTLSLTCAVSGGSDSSTNWWTWVRQSPGQGLEWIGEISPIGFTSYSPSLRSRVTISVDKSKTQFSLKLSSVTAADTAVYYCARDRLYFAFWGQGTLVTVSS
VL: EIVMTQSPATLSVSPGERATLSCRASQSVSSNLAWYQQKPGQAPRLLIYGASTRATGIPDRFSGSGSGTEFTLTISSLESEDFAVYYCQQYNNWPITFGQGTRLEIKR
In the case of B1, the half-maximal effective concentration (EC50) in assay [1] amounted to 0.0684 µg/mL; in assay [3], 0.0123 µg/mL; in assay [5], 0.00193 µg/mL; in assay [6], 0.115 µg/mL; in [8] it was 0.00577 µg/mL; in assay [9], 0.00634 µg/mL. The binding result in assay [2] is given as “no binding (tested: 200 nM highest concentration)”; in assay [10], “no binding (tested: 10 ug/ml highest concentration)”; in [11], “no binding (tested: 10 ug/ml highest concentration)”. In addition, in assay [4], the “CDC: EC50 of killing of target cell CHO-S-B7-H3-4Ig with 10% guinea pig serum complement” value was 2.92 µg/mL. In addition, in assay [7], the “Endocytosis EC50 on HCC827 cells (PHrodo, flow cytometry)” value was found to be 0.0102 µg/mL. Moreover, the “Endocytosis EC50 on HCC1806 cells (PHrodo, flow cytometry)” value in assay [7] is 0.0206 µg/mL. The “Endocytosis EC50 on NCI-N87 cells (PHrodo, flow cytometry)” value in assay [7] amounted to 0.0122 µg/mL.
